The record followed here is PMC6427009 (Scientific Reports, 2019).

This assay deals with Hemagglutinin of Influenza A/California/07/2009 (H1N1) (Influenza A/California/07/2009 (H1N1), UniProt C3W5X2, fully glycosylated (7 glycosylation sites)). In words: HDX-MS. The conditions noted are these: both partners purified.

B1: llama single-domain antibody SD38 (VHH)
VHH: EVQLVESGGGLVQPGGSLRLSCAVSISIFDIYAMDWYRQAPGKQRDLVATSFRDGSTNYADSVKGRFTISRDNAKNTLYLQMNSLKPEDTAVYLCHVSLYRDPLGVAGGMGVYWGKGALVTVSS
notes: also called Llama single domain SD38
On to B1, for which the binding result is recorded as “binds”.
